According to US20060088524A1 (BOARD OF TRUSTEES OF THE UNIVERSITY OF ILLINOIS, published 2006):

Key:
[1] = target: TF:VIIa complex (1:1 complex of rTF and factor VIIa on a phospholipid surface) (UniProt P08709)
[2] = target: T1, recombinant human tissue factor (rTF), membrane-anchored, HPC4-tagged, cytoplasmic domain truncated
T1 chain: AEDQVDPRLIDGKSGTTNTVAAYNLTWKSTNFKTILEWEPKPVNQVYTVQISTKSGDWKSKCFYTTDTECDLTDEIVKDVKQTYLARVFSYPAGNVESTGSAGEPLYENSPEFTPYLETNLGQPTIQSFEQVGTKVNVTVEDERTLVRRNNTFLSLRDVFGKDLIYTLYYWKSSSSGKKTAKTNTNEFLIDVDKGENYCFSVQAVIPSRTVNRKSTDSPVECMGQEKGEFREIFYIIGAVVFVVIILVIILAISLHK

In the case of coagulation factor X, the Km for factor X activation; TF-Nanodiscs, 10% PS, 90% PC [1] is reported as 132 nM, the Km for factor X activation; TF-Nanodiscs, 20% PS, 80% PC [1] is reported as 68.6 nM and the Km for factor X activation; TF-Nanodiscs, 30% PS, 70% PC [1] is reported as 45.2 nM. For the same molecule, the Km for factor X activation; TF-liposomes, 20% PS, 80% PC [1] was 20.2 nM, the Km, app for factor X activation; rTF in PCPS vesicles [1] was 20.2 nM and the Km, app for factor X activation; rTF-PCPS-nanoscale discs [1] was 68.6 nM.

B1: coagulation factor VIIa (protein)
chain: ANAFLEELRPGSLERECKEEQCSFEEAREIFKDAERTKLFWISYSDGDQCASSPCQNGGSCKDQLQSYICFCLPAFEGRNCETHKDDQLICVNENGGCEQYCSDHTGTKRSCRCHEGYSLLADGVSCTPTVEYPCGKIPILEKRNASKPQGRIVGGKVCPKGECPWQVLLLVNGAQLCGGTLINTIWVVSAAHCFDKIKNWRNLIAVLGEHDLSEHDGDEQSRRVAQVIIPSTYVPGTTNHDIALLRLHQPVVLTDHVVPLCLPERTFSERTLAFVRFSLVSGWGQLLDRGATALELMVLNVPRLMTQDCLQQSRKVGDSPNITEYMFCAGYSDGSKDSCKGDSGGPHATHYRGTWYLTGIVSWGQGCATVGHFGVYTRVSQYIEWLQKLMRSEPRPGVLLRAPFP
B1 was tested, and the “procoagulant activity (plasma clotting) of TF-containing nanoscale discs” value [2] was “the resultant discs exhibit strong procoagulant activity”.
